# Reference: article PMC2924745 (Nature structural & molecular biology, 2010)
# T1: BtuCD, the E. coli vitamin B12 ABC transporter (His-tagged) (Escherichia coli, UniProt P06609;P06611)
# T1 sequence 1: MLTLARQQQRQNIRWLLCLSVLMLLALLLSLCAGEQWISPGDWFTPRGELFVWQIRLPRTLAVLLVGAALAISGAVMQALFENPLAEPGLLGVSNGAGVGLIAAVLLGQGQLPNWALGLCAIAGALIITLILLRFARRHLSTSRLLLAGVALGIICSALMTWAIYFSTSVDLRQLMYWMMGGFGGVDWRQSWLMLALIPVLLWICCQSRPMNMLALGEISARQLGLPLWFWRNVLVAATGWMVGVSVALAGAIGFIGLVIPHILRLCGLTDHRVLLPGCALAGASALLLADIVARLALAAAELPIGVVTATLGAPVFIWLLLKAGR
# T1 sequence 2: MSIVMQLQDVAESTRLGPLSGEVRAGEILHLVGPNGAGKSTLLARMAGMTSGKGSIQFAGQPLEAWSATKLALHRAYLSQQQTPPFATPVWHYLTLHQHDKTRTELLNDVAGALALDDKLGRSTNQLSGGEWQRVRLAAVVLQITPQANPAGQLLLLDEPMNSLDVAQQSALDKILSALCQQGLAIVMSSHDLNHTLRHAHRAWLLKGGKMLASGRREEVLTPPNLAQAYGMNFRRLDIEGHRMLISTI
# Key:
# [1] = target: MetIN, the E. coli D/L-methionine ABC importer (His-tagged) (Escherichia coli) (UniProt P30750); assay: SPR
# [2] = target: T1, BtuCD, the E. coli vitamin B12 ABC …; assay: cell-based or functional assay
# [3] = target: T1, BtuCD, the E. coli vitamin B12 ABC …; assay: co-sedimentation
# MetIN, the E. coli D/L-methionine ABC importer (His-tagged) (Escherichia coli), sequence (P30750 whole entry, chain 1 of 2): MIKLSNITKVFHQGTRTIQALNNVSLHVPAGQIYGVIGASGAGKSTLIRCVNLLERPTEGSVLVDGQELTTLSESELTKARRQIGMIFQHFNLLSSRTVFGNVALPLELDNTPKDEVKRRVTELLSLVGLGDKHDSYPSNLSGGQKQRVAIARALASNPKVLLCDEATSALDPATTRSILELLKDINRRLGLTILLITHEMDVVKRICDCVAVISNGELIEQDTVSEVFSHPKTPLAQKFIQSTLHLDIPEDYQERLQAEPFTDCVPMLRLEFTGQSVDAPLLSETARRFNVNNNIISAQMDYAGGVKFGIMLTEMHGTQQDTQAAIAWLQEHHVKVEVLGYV
# MetIN, the E. coli D/L-methionine ABC importer (His-tagged) (Escherichia coli), sequence (P31547 whole entry, chain 2 of 2, further chain): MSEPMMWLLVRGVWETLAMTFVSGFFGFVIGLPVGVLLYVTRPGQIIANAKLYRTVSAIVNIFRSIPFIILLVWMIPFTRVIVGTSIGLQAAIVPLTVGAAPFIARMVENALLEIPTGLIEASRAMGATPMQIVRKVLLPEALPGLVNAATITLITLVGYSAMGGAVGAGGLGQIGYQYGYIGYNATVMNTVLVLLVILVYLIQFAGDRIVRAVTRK
Kd [1],stimulation of ATP hydrolysis rate of BtuCD [2],Kd [3],Molecule
74 µM,,,"MetQ, the binding protein of the E. coli D/L-methionine importer (from UniProt P28635 23-271) (natural protein)"
,< 2 fold,< 20 nM,"BtuF, the vitamin B12 binding protein of E. coli, with a C-terminal FLAG tag (natural protein) APRVITLSPANTELAFAAGITPVGVSSYSDYPPQAQKIEQVSTWQGMNLERIVALKPDLVIAWRGGNAERQVDQLASLGIKVMWVDATSIEQIANALRQLAPWSPQPDKAEQAAQSLLDQYAQLKAQYADKPKKRVFLQFGINPPFTSGKESIQNQVLEVCGGENIFKDSRVPWPQVSREQVLARSPQAIVITGGPDQIPKIKQYWGEQLKIPVIPLTSDWFERASPRIILAAQQLCNALSQVD"
